What was measured:
[1] = assay type: physicochemical
Method: After the acid-based purification step at acidic pH described in Example 5, the neutralized insoluble fusion peptides were washed again with water to remove traces of buffer and were resuspended in 1 mL of 10 mM HCl pH 2. The precipitates resolubilized immediately thus highlighting the rapid, reversible and pH-controllable properties of the peptide fusions to IFPs The tubes containing the solubilized fusion peptides were incubated at 80° C. for 4 hours to allow the cleavage of the Asp-Pro acid-labile peptide bond in the linker connecting the IFP and the POI. After four hours at 80° C., the solutions were neutralized back to a pH comprised between 6.5 and 8.0 by addition of 60 μL of 500 mM Tris Base Tris per mL of pH 2 peptide solution. For most fusions, the neutralization was accompanied by the immediate formation of precipitates. When only a light precipitate was observed, the buffer was adjusted to neutrality by careful addition of HCl or of buffer base. The neutralized fractions were placed at −20° C. for 20 min to enhance precipitation, and then subsequently thawed and centrifuged at 20,000×g for 5 min. The supernatants were transferred to a new tube and the pellets resuspended in 1 ml of water. Aliquots of soluble and insoluble fractions were analyzed by PAGE.

[2] = Soluble versus insoluble fraction of E. coli cell extracts, SDS-PAGE; assay type: physicochemical; settings: cell extract in 25 mM Tris 50 mM NaCl pH 7.5, centrifugation 20,000×g
Method: To determine the soluble versus insoluble cell contents, cells from each of the 3 mL cultures were harvested by centrifugation and the pellet resuspended in 1 ml of 25 mM Tris 50 mM NaCl PH 7.5 buffer. The cell suspensions were transferred in 2 mL screw cap tubes containing 0.5 mL of ZrO2/SiO4 0.1 mm beads (Research Product International, Mount Prospect, IL) and disrupted in a FastPrep-24™ bead beater (MP Bio Irvine, CA) for 1 min at 5 m/s. After disruption, the cell extracts were transferred to new microfuge tubes. The soluble and insoluble fractions were then separated by centrifugation at 20,000×g for 5 min. The supernatants containing the soluble proteins were transferred to new tubes and the pellets containing the inclusion bodies were resuspended in the same volume of Tris-NaCl buffer.
Ten μL aliquots of the soluble fraction and of the particulate fraction are analyzed by SDS-PAGE using precast NuPAGE™ Bis-Tris 12% polyacrylamide gels (Thermo Scientific) as indicated by the manufacturer. After electrophoresis, the proteins and peptides were visualized by staining with GelCode™ Blue Safe Protein Coomassie Stain (Thermo Scientific).

[3] = assay type: physicochemical; settings: pH 2
Method: To evaluate the useful solubilization of the IFPs at acidic and alkaline pH (from pH 2 to pH 12), the insoluble fractions of cell extracts expressing selected IFPs were produced as described in Example 2. They were pelleted by centrifugation for 5 min at 20,000×g and washed with water several times to remove the buffer. The washed pellets were resuspended in 10 mM HCl pH 2 or in 10 mM NaOH pH 12. Suspensions were mixed vigorously and allowed to stand at room temperature for 15 min at which time they were centrifuged again for 5 min at 20,000×g. The solubilization of the IFPs in either acidic (pH 2) or alkaline (pH 12) conditions was assessed by PAGE analysis of an aliquot of the centrifugation supernatant.
Cells were harvested by centrifugation at 20,000×g, resuspended in 1 mL of 25 mM Tris […] pH 7.5 and disrupted with a bead beater as described in Example 2. Following cell disruption and centrifugation, the insoluble fractions were washed several times in deionized water to remove traces of buffer and then recovered by centrifugation. The fractions were resuspended in 1 mL of 10 mM HCl pH 2 with repeated vortexing over 15 min at room temperature. […] Aliquots of each fraction corresponding to a same initial volume of cell extracts were analyzed by SDS-PAGE.

[4] = assay type: physicochemical; remark: listed apart in the source
Method: After 15 min at pH 2, the acidified supernatant fraction were neutralized by addition of 40 μL 500 mM Tris base or 60 μL of Bis-Tris base per mL of pH 2 fraction to reach a pH comprised between 6.5 and 8.0. For most fusions, the neutralization was accompanied by the immediate formation of a precipitate. When only a light precipitate was observed, the buffer was adjusted to neutrality by addition of HCl or of buffer base. The neutralized fractions were placed at −20° C. for 20 min and were subsequently thawed. The neutralized fractions were then centrifuged at 20,000×g for 5 min. Their supernatant was discarded and the pellets containing the insoluble fusion peptides resuspended in 1 ml of water.

Row | Molecule | solubility at neutral pH after acid cleavage (partition supernatant / pellet) [1] | solubility of the polypeptide as expressed in E. coli [2] | solubilization at acidic pH [3] | re-insolubilization (precipitation) upon neutralization [4]
1 | Apidaecin | recovered in the soluble fraction |  |  | 
2 | IFP534: insolubility fusion partner, 4 × QQHYHYHQQ, GGGG linker, SEQ ID NO: 62 | remains in the insoluble fraction |  |  | 
3 | Lunasin | recovered in the soluble fraction |  |  | 
4 | IIP003: insoluble immunogenic peptide, 6 × SAP162 with 3 × Ova1, Structure 9, SEQ ID NO: 104 (protein) MASGGDPGGHQEYHYHYRQHGGGGSIINFEKLGGGGHQEYHYHYRQHGGDPGGHQEYHYHYRQHGGGGSIINFEKLGGGGHQEYHYHYRQHGGDPGGHQEYHYHYRQHGGGGSIINFEKLGGGGHQEYHYHYRQHGGDPGGPGPGP |  | produced insolubly | solubilization | re-insolubilization
5 | IFP-Luna-006: split fusion, two copies of Lunasin sandwiched between three copies of IFP100, SEQ ID NO: 102 (protein) MASGGGQQHYHYHQQGGGGQQHYHYHQQGGDPGGSKWQHQQDSCRKQLQGVNLTPCEKHIMEKIQGRGDDDDDDDDDPGGGGQQHYHYHQQGGGGQQHYHYHQQGGDPGGSKWQHQQDSCRKQLQGVNLTPCEKHIMEKIQGRGDDDDDDDDDPGGGGQQHYHYHQQGGGGQQHYHYHQQGGGPGPGPHHHHHH |  | expressed the split fusion insolubly |  | 
6 | IIP015: insoluble immunogenic peptide, 6 × SAP234 with 3 × Ova1, Structure 9, SEQ ID NO: 114 (protein) MASGGDPGGQQHYHYHQQGGGGSIINFEKLGGGGQQHYHYHQQGGDPGGQQHYHYHQQGGGGSIINFEKLGGGGQQHYHYHQQGGDPGGQQHYHYHQQGGGGSIINFEKLGGGGQQHYHYHQQGGDPGGPGPGP |  | produced insolubly | solubilization | re-insolubilization
7 | IFP-Api-003: split fusion, Apidaecin sandwiched between two copies of IFP100, cLNK GGDPGG, SEQ ID NO: 98 (protein) MASGGGQQHYHYHQQGGGGQQHYHYHQQGGDPGGGNNRPVYIPQPRPPHPPRGGDPGGQQHYHYHQQGGGGQQHYHYHQQGGGPGPGPHHHHHH |  | expressed the split fusion insolubly |  | 
8 | IFP-Api-006: split fusion, two copies of Apidaecin sandwiched between three copies of IFP100, SEQ ID NO: 100 (protein) MASGGGQQHYHYHQQGGGGQQHYHYHQQGGDPGGGNNRPVYIPQPRPPHPPRGGDPGGQQHYHYHQQGGGGQQHYHYHQQGGDPGGGNNRPVYIPQPRPPHPPRGGDPGGQQHYHYHQQGGGGQQHYHYHQQGGGPGPGPHHHHH |  | expressed the split fusion insolubly |  | 
9 | IFP221: insolubility fusion partner of IFP221-Api; 3 × QQEYHYHYHYRQQ with GGGG spacers as in SEQ ID NO: 94 (protein) MASGGGQQEYHYHYHYRQQGGGGQQEYHYHYHYRQQGGGGQQEYHYHYHYRQQGGGDPGGGNNRPVYIPQPRPPHPRLGGGGDPGGGNNRPVYIPQPRPPHPRLGGGGDPGPGPHHHHHH | remains in the insoluble fraction |  |  | 
